The target of the assay is human carbonic anhydrase 9 (CAIX) (human), Q16790. In words: FACS competition on HT-29 cells, competitor tracer 3BP-2776; category A = pIC50 >8.0.

As to VCCEPDWLTWCC (modifications not checked) [3BP-4179], the pIC50 was more than 8 pic50.

Values taken from patent US20250339569A1, “CARBONIC ANHYDRASE IX LIGANDS” (priority 2021, published 2025).
